According to US20180142000A1 (NATIONAL RESEARCH COUNCIL OF CANADA, published 2018):

Molecular target: FlagV1P
Assay: fluorescence microscopy with FITC-labeled pentabody on whole bacteria

B1: C. jejuni strain 11168 flagella (other)
chain 1: GFRINTNVAALNAKANADLNSKSLDASLSRLSSGLRINSAADDASGMAIADSLRSQANTLGQAISNGNDALGILQTADKAMDEQLKILDTIKTKATQAAQDGQSLKTRTMLQADINRLMEELDNIANTTSFNGKQLLSGNFINQEFQIGASSNQTVKATIGATQSSKIGLTRFETGGRISTSGEVQFTLKNYNGIDDFQFQKVVISTSVGTGLGALADEINKNADKTGVRATFTVETRGIAAVRAGATSDTFAINGVKIGKVDYKDGDANGALVAAINSVKDTTGVEASIDANGQLLLTSREGRGIKIDGNIGGGAFINADMKENYGRLSLVKNDGKDILISGSNLSSAGFGATQFISQASVSLRESKGQIDANIADAMGFGSANKGVVLGGYSSVSAYMSSAGSGFSSGSGYSVGSGKNYSTGFANAIAISAASQLSTVYNVSAGSGFSSGSTLSQFATMKTTAFGVKDETAGVTTLKGAMAVMDIAETAITNLDQIRADIGSVQNQVTSTINNITVTQVNVKAAESQIRDVDFAAESANYSKANILAQSGSYAMAQANSVQQNVLRLLQ
chain 2: GFRINTNIGALNAHANSVVNARELDKSLSRLSSGLRINSAADDASGMAIADSLRSQAATLGQAINNGNDAIGILQTADKAMDEQLKILDTIKTKATQAAQDGQSLKTRTMLQADINRLMEELDNIANTTSFNGKQLLSGNFINQEFQIGASSNQTIKATIGATQSSKIGLTRFETGGRISSSGEVQFTLKNYNGIDDFQFQKVVISTSVGTGLGALAEEINKSADKTGVRATFTVETRGIAAVRAGTTSDTFAINGVTIGQVAYEDGDGNGALVAAINSVKDTTGVEASIDANGQLLLTSREGRGIKIDGNIGGGAFINADMKENYGRLSLVKNDGKDILISGSNLSSAGFGATQFISQASVSLRESKGRFDANIADAMGFGSANKGVVLGGYSSVSAYMSSAGSGFSSGSGYSVGSGKNYSTGFANAIAISAASQLSTVYNVSAGSGFSSGSTLSQFATMKTTAFGVKDETAGVTTLKGAMAVMDIAETATTNLDQIRADIGSVQNQLQVTINNITVTQVNVKAAESTIRDVDFAAESANFSKYNILAQSGSYAMSQANAVQQNVLKLLQ
B1: no binding.
